Experimental findings from patent publication US20200031947A1 (RINAT NEUROSCIENCE, published 2020) are described below.

Some results are limits rather than exact numbers.

The target of assay [1] is T1, cynomolgus GITR (cyGITR), soluble analyte (cynomolgus).
T1 construct: Soluble analyte in SPR; construct not described; also called cGITR
Briefly: SPR (Biacore T200), 37 C; antibody captured on anti-human Fc chip, GITR as analyte; 1:1 Langmuir fit. Here is the method: (§1) The sensor chip preparation was performed at 25° C. with a running buffer of 10 mM HEPES, 150 mM NaCl, 0.05% (v/v) Tween-20, pH 7.4. An anti-human Fc sensor chip was made by activating all flow cells of a Biacore CM4 sensor chip with a 1:1 (v/v) mixture of 400 mM EDC and 100 mM NHS for 7 minutes, at a flow rate of 10 μL/min. An anti-human Fc reagent (Goat Anti-Human IgG Fc, SouthernBiotech Catalog #2081-01) was diluted to […] in 10 mM Sodium Acetate pH 4.5 and injected on all flow cells for 7 minutes at 20 μL/min. All flow cells were blocked with 100 mM ethylenediamine in 150 mM Borate buffer pH 8.5 for 7 minutes at 10 μL/min.
(§2) Antibodies were captured from undiluted supernatants onto downstream flow cells (flow cells 2, 3 and 4) at a flow rate of 10 μL/min for 2 minutes. Different antibodies were captured on each flow cell. Flow cell 1 was used as a reference surface. Following capture of antibodies, analyte (buffer, hGITR, or cyGITR) was injected at 30 μL/min on all flow cells for two minutes. After the analyte injection, dissociation was monitored for 10 minutes followed by regeneration of all flow cells with three 1-minute injections of 75 mM Phosphoric Acid. For each captured antibody, the following analyte injections were performed: buffer, 20 nM hGITR, 200 nM hGITR, 20 nM cyGITR and 200 nM cyGITR. Buffer cycles were collected for each captured antibody for double-referencing purposes (double-referencing as described in Myszka, J. Mol. Recognit. 12:279-284 (1999). The double-referenced sensorgrams were fit globally to a simple 1:1 Langmuir with mass transport binding model.

For assay [2], the target named is T2, human GITR (hGITR), soluble analyte (human, UniProt Q9Y5U5 26-162).
T2 sequence: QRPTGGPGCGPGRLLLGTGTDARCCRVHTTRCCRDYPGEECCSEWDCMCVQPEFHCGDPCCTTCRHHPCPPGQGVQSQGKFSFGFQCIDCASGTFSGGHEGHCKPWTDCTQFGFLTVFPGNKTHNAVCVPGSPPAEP
The description is as above. Here is the method:
as §1, §2

The next assay has as its target T3, human GITR on cells (human, UniProt Q9Y5U5 26-162).
T3 construct: Endogenous on primary human T cells and Tregs, or transfected into Jurkat and 3A9 cells
T3 sequence: T2 sequence
Description: flow cytometry on human T cells activated 48 h with CD3/28 beads; unlabeled antibody detected with APC goat anti-mouse Fc gamma F(ab')2. The source says:
Primary human lymphocytes were isolated from concentrated whole blood provided by the Stanford Blood Bank by first diluting blood 1:4 in Phosphate Buffered Saline (PBS, without Ca2+ and Mg2+). Peripheral Blood Mononuclear Cells (PBMC) were isolated using a Ficoll gradient underlay (Ficoll-Paque PLUS, GE Healthcare Life Sciences, Pittsburgh, Pa.). The harvested buffy layer was washed twice with PBS and counted. Cells were resuspended at 50*10e6c/mL in PBS+2% Fetal Bovine Serum (FBS) and processed with CD3 negative enrichment kit (Stem Cell Tech Vancouver, BC) according to manufacturer's instructions. After enrichment, cells were counted and frozen in aliquots of 10-20*10e6 in 90% FBS 10% DMSO freeze media for future use. For activation, a vial of cells from a donor T cell was thawed and rested overnight in R10c (RPMI 1640+10% FBS+1×NEAA+1×Sodium Pyruvate+1×Pen-Strep) at 1*10e6 cells/mL in a T75 flask. Cells were counted and stimulated for 48 hours with Dynabeads Human CD3/28 T cells activating beads at a 1:1 bead to cell ratio (Thermo Fisher). After 48 hours the cells were removed from media and washed with 1×PBS. Cells were titrated into a 96 well plate where they were stained with unlabeled mouse anti-human GITR antibodies (100-0.001 ug/mL) in PBS and incubated for 30 minutes at 37° c. […]

B1: m10H2 (antibody, V domains shown)
VH: QVQLQQSGAELMKPGASVKISCTATGYTISRYWIEWVKQRPGHGLEWIGEILPGSGVTNYNEKFKGKATFTADTSSNTAYMQLSSLTSEDSAVYSCARKGTYYAMDYWGQGTSVTVSS
VL: DILLTQSPAILSVSPGERVSFSCRASQSIGTSIHWYQQRTNGSPRLLIKYASESVSGIPSRFSGSGSGTDFTLFINSVESEDIADYYCQQTYSWPATFGAGTKLELK
notes: In ADCC it is called hIgG1; also called anti-human GITR antibody m10H2; A647 labeled m10H2
Take B1: in assay [1], the Kd was more than 100 nM, the koff was 0.0073 s⁻¹ and the t1/2 is 1.6 min. Moreover, in assay [2], binding was put at a Kd of 2.2 nM, the koff is 0.00077 s⁻¹, the kon came out at 350000 M⁻¹ s⁻¹ and the t1/2 was found to be 15 min. In the assay with human GITR on cells, the “EC50 (read off the curve)” value was approximately 0.07 µg/mL.
